Experimental data: PMC3045587

T1: hTra2-β RRM (Homo sapiens, UniProt P62995 110-201)
T1 sequence: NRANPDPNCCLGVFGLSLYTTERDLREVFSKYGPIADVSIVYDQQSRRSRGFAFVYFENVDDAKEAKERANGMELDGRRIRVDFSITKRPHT

B1: UCAAU (ssRNA)
RNA: UCAAU
B2: 14-mer CAA stem-loop RNA (structured_RNA)
RNA: GACUUCAACAAGUC
B3: (GAA)2, GAAGAA (ssRNA)
RNA: GAAGAA

Experiments:
hTra2-β RRM [1] = target: T1, hTra2-β RRM; assay: NMR titration
hTra2-β RRM [2] = target: T1, hTra2-β RRM; assay: ITC
hTra2-β RRM [3] = target: T1, hTra2-β RRM; assay: ITC; remark: listed apart in the source

Binder | Kd (hTra2-β RRM [1]) [µM] | Kd (hTra2-β RRM [2]) [µM] | Kd (hTra2-β RRM [3]) [µM]
B1 | ~40 | 47.8 | 
B2 |  |  | 3.48
B3 |  |  | 1.5
